Experimental data published in IntAct's records for PubMed 31515488.

B1: SHC-transforming protein 1 (Homo sapiens), P29353 (parent)
chain: MDLLPPKPKYNPLRNESLSSLEEGASGSTPPEELPSPSASSLGPILPPLPGDDSPTTLCSFFPRMSNLRLANPAGGRPGSKGEPGRAADDGEGIVGAAMPDSGPLPLLQDMNKLSGGGGRRTRVEGGQLGGEEWTRHGSFVNKPTRGWLHPNDKVMGPGVSYLVRYMGCVEVLQSMRALDFNTRTQVTREAISLVCEAVPGAKGATRRRKPCSRPLSSILGRSNLKFAGMPITLTVSTSSLNLMAADCKQIIANHHMQSISFASGGDPDTAEYVAYVAKDPVNQRACHILECPEGLAQDVISTIGQAFELRFKQYLRNPPKLVTPHDRMAGFDGSAWDEEEEEPPDHQYYNDFPGKEPPLGGVVDMRLREGAAPGAARPTAPNAQTPSHLGATLPVGQPVGGDPEVRKQMPPPPPCPGRELFDDPSYVNVQNLDKARQAVGGAGPPNPAINGSAPRDLFDMKPFEDALRVPPPPQSVSMAEQLRGEPWFHGKLSRREAEALLQLNGDFLVRESTTTPGQYVLTGLQSGQPKHLLLVDPEGVVRTKDHRFESVSHLISYHMDNHLPIISAGSELCLQQPVERKL
partner: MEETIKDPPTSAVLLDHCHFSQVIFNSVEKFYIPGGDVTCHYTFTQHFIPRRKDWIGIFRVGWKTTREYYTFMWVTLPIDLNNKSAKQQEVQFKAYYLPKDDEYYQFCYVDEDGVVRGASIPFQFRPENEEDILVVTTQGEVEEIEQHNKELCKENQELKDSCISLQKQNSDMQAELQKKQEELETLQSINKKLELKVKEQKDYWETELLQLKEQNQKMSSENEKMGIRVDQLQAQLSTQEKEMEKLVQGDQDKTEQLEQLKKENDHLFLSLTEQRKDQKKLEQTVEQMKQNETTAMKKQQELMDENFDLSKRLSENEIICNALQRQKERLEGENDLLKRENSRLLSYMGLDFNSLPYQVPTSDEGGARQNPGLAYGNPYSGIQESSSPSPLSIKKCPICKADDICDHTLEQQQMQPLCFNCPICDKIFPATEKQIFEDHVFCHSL
B2: Centriolar satellite-associated tubulin polyglutamylase complex regulator 1 (Homo sapiens), Q9H6J7 (parent)
chain: MLSPERLALPDYEYLAQRHVLTYMEDAVCQLLENREDISQYGIARFFTEYFNSVCQGTHILFREFSFVQATPHNRVSFLRAFWRCFRTVGKNGDLLTMKEYHCLLQLLCPDFPLELTQKAARIVLMDDAMDCLMSFSDFLFAFQIQFYYSEFLDSVAAIYEDLLSGKNPNTVIVPTSSSGQHRQRPALGGAGTLEGVEASLFYQCLENLCDRHKYSCPPPALVKEALSNVQRLTFYGFLMALSKHRGINQALGALPDKGDLMHDPAMDEELERLLAQVPGLVNSVTASPEASCLPSRTPPRVGSPWRPLHHSRKVDGESDGSTEETDESET
partner: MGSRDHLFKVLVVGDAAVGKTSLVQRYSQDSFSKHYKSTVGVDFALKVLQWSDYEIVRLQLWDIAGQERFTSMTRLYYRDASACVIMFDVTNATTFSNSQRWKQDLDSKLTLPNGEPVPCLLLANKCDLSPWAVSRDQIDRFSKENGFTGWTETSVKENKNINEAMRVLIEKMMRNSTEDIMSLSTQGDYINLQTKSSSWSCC
B3: Keratin-associated protein 12-1 (Homo sapiens), P59990 (parent)
chain: MCHTSCSSGCQPACCAPSPCQASCYIPVGCQSSVCVPVSFKPAVCVPVRCQSSVCVPVSCRPVVYAAPSCQSSGCCQPSCTSVLCRPISCSTPSCC
B4: Nebulette (Homo sapiens), O76041 (parent)
chain: MRVPVFEDIKDETEEEKIGEEENEEDQVFYKPVIEDLSMELARKCTELISDIRYKEEFKKSKDKCTFVTDSPMLNHVKNIGAFISEAKYKGTIKADLSNSLYKRMPATIDSVFAGEVTQLQSEVAYKQKHDAAKGFSDYAHMKEPPEVKHAMEVNKHQSNISYRKDVQDTHTYSAELDRPDIKMATQISKIISNAEYKKGQGIMNKEPAVIGRPDFEHAVEASKLSSQIKYKEKFDNEMKDKKHHYNPLESASFRQNQLAATLASNVKYKKDIQNMHDPVSDLPNLLFLDHVLKASKMLSGREYKKLFEENKGMYHFDADAVEHLHHKGNAVLQSQVKYKEEYEKNKGKPMLEFVETPSYQASKEAQKMQSEKVYKEDFEKEIKGRSSLDLDKTPEFLHVKYITNLLREKEYKKDLENEIKGKGMELNSEVLDIQRAKRASEMASEKEYKKDLESIIKGKGMQAGTDTLEMQHAKKAAEIASEKDYKRDLETEIKGKGMQVSTDTLDVQRAKKASEMASQKQYKKDLENEIKGKGMQVSMDIPDILRAKRTSEIYSQRKYKDEAEKMLSNYSTIADTPEIQRIKTTQQNISAVFYKKEVGAGTAVKDSPEIERVKKNQQNISSVKYKEEIKHATAISDPPELKRVKENQKNISNLQYKEQNYKATPVSMTPEIERVRRNQEQLSAVKYKGELQRGTAISDPPELKRAKENQKNISNVYYRGQLGRATTLSVTPEMERVKKNQENISSVKYTQDHKQMKGRPSLILDTPAMRHVKEAQNHISMVKYHEDFEKTKGRGFTPVVDDPVTERVRKNTQVVSDAAYKGVHPHIVEMDRRPGIIVDLKVWRTDPGSIFDLDPLEDNIQSRSLHMLSEKASHYRRHWSRSHSSSTFGTGLGDDRSEISEIYPSFSCCSEVTRPSDEGAPVLPGAYQQSHSQGYGYMHQTSVSSMRSMQHSPNLRTYRAMYDYSAQDEDEVSFRDGDYIVNVQPIDDGWMYGTVQRTGRTGMLPANYIEFVN
partner: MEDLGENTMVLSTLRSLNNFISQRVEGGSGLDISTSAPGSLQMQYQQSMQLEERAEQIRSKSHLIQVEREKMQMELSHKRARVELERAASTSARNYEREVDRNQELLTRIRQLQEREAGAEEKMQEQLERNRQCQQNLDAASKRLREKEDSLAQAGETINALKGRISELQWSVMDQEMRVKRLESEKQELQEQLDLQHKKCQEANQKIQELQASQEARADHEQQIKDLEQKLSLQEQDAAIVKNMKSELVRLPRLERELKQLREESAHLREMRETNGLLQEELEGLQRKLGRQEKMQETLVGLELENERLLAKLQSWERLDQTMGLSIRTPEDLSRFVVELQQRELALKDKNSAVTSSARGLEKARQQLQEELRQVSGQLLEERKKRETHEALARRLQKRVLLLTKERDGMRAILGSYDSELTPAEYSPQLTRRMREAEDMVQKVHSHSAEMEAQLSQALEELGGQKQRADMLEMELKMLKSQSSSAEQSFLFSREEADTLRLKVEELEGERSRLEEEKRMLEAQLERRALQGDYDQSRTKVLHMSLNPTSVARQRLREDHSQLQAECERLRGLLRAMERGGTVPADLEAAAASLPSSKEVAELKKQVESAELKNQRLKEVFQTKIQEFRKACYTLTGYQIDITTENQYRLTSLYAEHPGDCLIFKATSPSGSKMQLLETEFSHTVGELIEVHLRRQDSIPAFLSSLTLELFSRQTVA
B5: CDK5 regulatory subunit-associated protein 3 (Homo sapiens), Q96JB5 (parent)
chain: MEDHQHVPIDIQTSKLLDWLVDRRHCSLKWQSLVLTIREKINAAIQDMPESEEIAQLLSGSYIHYFHCLRILDLLKGTEASTKNIFGRYSSQRMKDWQEIIALYEKDNTYLVELSSLLVRNVNYEIPSLKKQIAKCQQLQQEYSRKEEECQAGAAEMREQFYHSCKQYGITGENVRGELLALVKDLPSQLAEIGAAAQQSLGEAIDVYQASVGFVCESPTEQVLPMLRFVQKRGNSTVYEWRTGTEPSVVERPHLEELPEQVAEDAIDWGDFGVEAVSEGTDSGISAEAAGIDWGIFPESDSKDPGGDGIDWGDDAVALQITVLEAGTQAPEGVARGPDALTLLEYTETRNQFLDELMELEIFLAQRAVELSEEADVLSVSQFQLAPAILQGQTKEKMVTMVSVLEDLIGKLTSLQLQHLFMILASPRYVDRVTEFLQQKLKQSQLLALKKELMVQKQQEALEEQAALEPKLDLLLEKTKELQKLIEADISKRYSGRPVNLMGTSL
partner: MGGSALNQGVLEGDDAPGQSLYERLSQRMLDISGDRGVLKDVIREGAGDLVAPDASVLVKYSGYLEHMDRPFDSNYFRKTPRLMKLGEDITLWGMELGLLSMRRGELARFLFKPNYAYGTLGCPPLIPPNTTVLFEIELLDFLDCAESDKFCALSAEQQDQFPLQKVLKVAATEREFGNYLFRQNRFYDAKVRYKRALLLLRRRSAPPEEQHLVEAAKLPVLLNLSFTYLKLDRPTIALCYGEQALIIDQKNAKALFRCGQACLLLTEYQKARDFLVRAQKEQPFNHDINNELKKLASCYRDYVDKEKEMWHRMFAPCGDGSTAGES

Variants of: B1
Conditions: with caco2_human CALCOCO2, Q13137

| Variant | effect of a mutation on the interaction |
| --- | --- |
| M410V | with no effect |

Variants of: B2
Conditions: with rab7l_human RAB29, O14966

| Variant | effect of a mutation on the interaction |
| --- | --- |
| S177L | with no effect |

Variants of: B3
Conditions: with meox2_human MEOX2, P50222
Chain of meox2_human MEOX2, P50222 (P50222 whole entry): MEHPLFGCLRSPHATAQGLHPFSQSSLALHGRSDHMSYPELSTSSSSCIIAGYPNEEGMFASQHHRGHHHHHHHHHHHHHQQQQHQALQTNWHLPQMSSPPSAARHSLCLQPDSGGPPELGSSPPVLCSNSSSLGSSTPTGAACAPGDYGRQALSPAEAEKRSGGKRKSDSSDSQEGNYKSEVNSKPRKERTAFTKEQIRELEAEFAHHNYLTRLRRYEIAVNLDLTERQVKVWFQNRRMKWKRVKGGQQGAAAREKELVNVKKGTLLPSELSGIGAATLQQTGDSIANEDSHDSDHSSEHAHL

| Variant | effect of a mutation on the interaction |
| --- | --- |
| A16T | with no effect |

Variants of: B4
Conditions: with md1l1_human MAD1L1, Q9Y6D9

| Variant | effect of a mutation on the interaction |
| --- | --- |
| M351V | with no effect |
| R613Q | with no effect |

Variants of: B5
Conditions: with fkbp6_human FKBP6, O75344

| Variant | effect of a mutation on the interaction |
| --- | --- |
| E173K | with no effect |
